Experiments:
[1] = target: T1, human Trop-2 expressed on cell surface (human, UniProt P09758 27-323); assay: cell-based or functional assay
T1 sequence (looked up): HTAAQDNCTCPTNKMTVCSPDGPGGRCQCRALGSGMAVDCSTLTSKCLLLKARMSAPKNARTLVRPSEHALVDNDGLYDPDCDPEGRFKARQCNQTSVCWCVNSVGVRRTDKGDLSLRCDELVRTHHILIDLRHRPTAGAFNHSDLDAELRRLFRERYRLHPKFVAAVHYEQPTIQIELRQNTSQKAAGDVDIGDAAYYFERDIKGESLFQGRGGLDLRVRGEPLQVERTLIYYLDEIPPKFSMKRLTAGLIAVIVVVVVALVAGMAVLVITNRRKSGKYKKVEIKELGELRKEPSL

[2] = target: cynomolgus Trop-2-His protein (cynomolgus); assay: ELISA, coated Trop-2 protein
[3] = target: T2, human Trop-2-His protein (human, UniProt P09758 27-274); assay: BLI (Gator Plus), Ab on HFC probe
T2 construct: extracellular domain; Assay paragraphs say only 'Trop-2-His'; also called hTrop-2; Kactus Cat #TRP-HM121; not shown: His tag
T2 sequence (looked up): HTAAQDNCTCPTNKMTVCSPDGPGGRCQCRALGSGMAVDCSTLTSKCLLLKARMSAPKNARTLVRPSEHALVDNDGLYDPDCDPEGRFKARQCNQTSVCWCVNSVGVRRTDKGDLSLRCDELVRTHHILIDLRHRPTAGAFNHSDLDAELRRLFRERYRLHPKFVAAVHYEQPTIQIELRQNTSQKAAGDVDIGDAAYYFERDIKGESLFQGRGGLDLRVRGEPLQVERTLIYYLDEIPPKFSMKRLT

[4] = target: T1, human Trop-2 expressed on cell surface; assay: flow cytometry, MCF-7 cells
Experimental: (§1) Cells were then resuspended in FACS buffer (1×DPBS/1% FBS) at 10⁶/ml concentration. One hundred microliter (100 μl) of cells were aliquoted into a single well in 96 well plates. The antibodies to be tested were serially diluted at 1:3 fold starting at 15 μg/mL and were then added into each well. The antibodies were mixed with cells and the mixtures were incubated on ice for 1 hour. After washing with FACS buffer, one hundred microliter (100 μl) of 1:400 diluted PE-conjugated anti-human Fc secondary antibody (Jackson Immuno Research) was added into each well and incubated for 30 minutes on ice. After washing with FACS buffer, stained cells were resuspended at diluted 7-ADD (Biolegend, used at 1:100 dilution) and analyzed on Guava 11HT or 5HT (Luminex). Data was analyzed using Flowjo software. EC₅₀ values were calculated using GraphPad Prism. Sacitnzurnab govitecan was used as positive control. Anti-HEL.hIgG1 was used as isotype negative control. Similar assay was performed using MCF-7 cells (known to express human Trop-2).

[5] = target: T2, human Trop-2-His protein; assay: ELISA, coated Trop-2 protein
Experimental: Purified antibodies were tested by ELISA to confirm their binding and affinity against human and cynomolgus Trop-2-His protein. Briefly, 96-well Maxisorp plates (Nunc) were coated with 100 μl/well of 0.5 μg/ml human (Kactus Cat #TRP-HM121, or Sino Biological, Cat #10428-HO8H) or cynomolgus Trop-2 protein (Kactus Cat #TRP-CM121, or Sino Biological, Cat #90893-CO8H) diluted in 1×PBS (GIBCO) overnight at 4° C. Plates were washed four times with 300 μl/well washing buffer (1×PBST, diluted from 20×PBST (Thermo Scientific) with distilled water)) and then blocked with 300 μl/well of blocking buffer (1×PBST/3% BSA (BSA, Sigma)) for 2 hours at RT on plate shaker at 100 rpm. Plates were washed and added with 100 μl/well of testing antibodies, which were serial diluted with assay buffer (PBST/1% BSA). The antibodies were incubated at room temperature for 2 hours on plate shaker at 100 rpm. Plates were washed. One hundred microliters (100 μl) of 1:10,000 diluted horseradish peroxidase (HRP) conjugated anti-hIgG antibody (Jackson Immuno Research) was added into each well and incubated at room temperature for 1 hour on plate shaker at 100 rpm. Plates were washed and added with 100 μl/well TMB substrate for color development in dark at room temperature for up to 10 minutes. After addition of 50 μl/well of stop solution (1N H₂SO₄), plates were read at 450 nm on a plate reader (SpectraMax M5). EC₅₀ values were calculated using Graphpad Prism. Sacituzumab govitecan, was used as positive control. Anti-HEL.hIgG1 was used as isotype control.

[6] = target: T1, human Trop-2 expressed on cell surface; assay: flow cytometry, MDA-MB-231-GFP cells
Experimental: as §1

[7] = target: T2, human Trop-2-His protein; assay: BLI (Gator Prime), positive control at 1 µg/ml on HFC probe
[8] = target: cynomolgus Trop-2-His protein (cynomolgus); assay: as above
[9] = target: T2, human Trop-2-His protein; assay: BLI (Gator Prime), positive control at 1 µg/ml on HFC probe; second line of values
[10] = target: cynomolgus Trop-2-His protein (cynomolgus); assay: as above

- EC50 of ADCC (NFAT-CD16 reporter), MCF-7; average from 3 plates [1]: 2.72 nM
- EC50 of ADCC (NFAT-CD16 reporter), MDA-MB-231; average from 3 plates [1]: 0.55 nM
- Internalization %, MCF-7, 0.25 µg/ml, 1 h [1]: 30%
- Internalization %, MCF-7, 0.25 µg/ml, 2 h [1]: 43%
- Internalization %, MCF-7, 0.25 µg/ml, 4 h [1]: 44%
- Internalization %, MCF-7, 0.5 µg/ml, 1 h [1]: -4%
- Internalization %, MCF-7, 0.5 µg/ml, 2 h [1]: 41%
- Internalization %, MCF-7, 0.5 µg/ml, 4 h [1]: 55%
- Internalization %, MDA-MB-231, 0.25 µg/ml, 2 h [1]: 41%
- Internalization %, MDA-MB-231, 0.25 µg/ml, 4 h [1]: 46%
- Internalization %, MDA-MB-231, 0.5 µg/ml, 2 h [1]: 42%
- Internalization %, MDA-MB-231, 0.5 µg/ml, 4 h [1]: 45%
- Internalization %, MDA-MB-231, 1 µg/ml, 2 h [1]: 43%
- Internalization %, MDA-MB-231, 1 µg/ml, 4 h [1]: 49%
- Internalization %, MDA-MB-231, 2 µg/ml, 2 h [1]: 43%
- Internalization %, MDA-MB-231, 2 µg/ml, 4 h [1]: 48%
- EC50 [2]: 0.017 nM
- kon [3]: 239000 M⁻¹ s⁻¹
- EC50 [4]: 2.2 nM
- EC50 [5]: 0.014 nM
- EC50 [6]: 0.09 nM
- Kd [7]: 0.755 nM
- koff [7]: 0.00022 s⁻¹
- kon [7]: 285000 M⁻¹ s⁻¹
- Kd [8]: 0.614 nM
- koff [8]: 0.00022 s⁻¹
- kon [8]: 405000 M⁻¹ s⁻¹
- Kd [9]: 0.497 nM
- koff [9]: 0.00014 s⁻¹
- kon [9]: 281000 M⁻¹ s⁻¹
- Kd [10]: 0.772 nM
- koff [10]: 0.00025 s⁻¹
- kon [10]: 326000 M⁻¹ s⁻¹
B1: Sacituzumab govitecan (antibody, INN chains, looked up, V domains shown)
VH: QVQLQQSGSELKKPGASVKVSCKASGYTFTNYGMNWVKQAPGQGLKWMGWINTYTGEPTYTDDFKGRFAFSLDTSVSTAYLQISSLKADDTAVYFCARGGFGSSYWYFDVWGQGSLVTVSS
VL: DIQLTQSPSSLSASVGDRVSITCKASQDVSIAVAWYQQKPGKAPKLLIYSASYRYTGVPDRFSGSGSGTDFTLTISSLQPEDFAVYYCQQHYITPLTFGAGTKVEIKR
modifications: SN-38 payload (govitecan)

From US20250206841A1 (ADEPT THERAPEUTICS, published 2025)
